# In article PMC6353796, “Thermostable Branched-Chain Amino Acid Transaminases From the Archaea Geoglobus acetivorans and Archaeoglobus fulgidus: Biochemical and Structural Characterization” (Frontiers in Bioengineering and Biotechnology, 2019):
# “And” between values parts separate entries of the source, which are not always exact repeats. Equal entries are not always repeated.
# Target: the molecule itself
# Assay: SEC; AF0933 on Superdex 200 HiLoad (1.6 x 60 cm) in 50 mM Tris-HCl, pH 7.5, 500 mM NaCl, 0.05 mM PLP; native molecular mass by size exclusion
protein,measurement,value
"AF0933, branched-chain amino acid transaminase (BCAT) from Archaeoglobus fulgidus (enzyme, PLP covalently bound (Schiff base, internal aldimine) to Lys150, Class IV branched-chain amino acid transaminase AF0933 of Archaeoglobus fulgidus; subunit 32.4 kDa, 290 amino acids; synthetic gene optimised for E. coli; Mainly homo-hexamer in solution with a small dimeric fraction; hexamer in the crystal; also called AF0933_holo; AF0933_GABC; source: E. coli Rosetta (DE3)-pLysS (pLATE51-AF0933), purified (heat step 70°C, Ni-NTA, Superdex 200)) MLYVYMDGEFVPENEAKVSIFDHGFLYGDGVFEGIRAYNGRVFRLKEHIDRLYDSAKAIDLEIPITKEEFMEIILETLRKNNLRDAYIRPIVTRGIGDLGLDPRKCQNPSIIVITKPWGKLYGDLYEKGLTAITVAVRRNSFDALPPNIKSLNYLNNILAKIEANAKGGDEAIFLDRNGYVSEGSGDNIFVVKNGAITTPPTINNLRGITREAVIEIINRLGIPFKETNIGLYDLYTADEVFVTGTAAEIAPIVVIDGRKIGDGKPGEITRKLMEEFSKLTESEGVPIYE",stoichiometry N,6 and 2
